Experimental data as given in PMC11405395 (The EMBO Journal, 2024).

Tests used:
Settings in all cases: both partners purified
[1] = molecular target: T1, DNA polymerase ε (Pol2, Dpb2, Dpb3, Dpb4), S. cerevisiae (S. cerevisiae, UniProt P21951 1-2222; P24482 1-689; P27344 1-201; Q04603 1-196); experiment: co-IP; purified proteins mixed: 10 nM FLAG-Rrm3 with 15 nM Pol ε, 10 min on ice; anti-FLAG M2 magnetic beads; 25 mM Hepes-KOH pH 7.6, 400 mM KOAc, 0.02% NP-40-S, 0.1 mg/mL BSA, 1 mM DTT, 10 mM Mg(OAc)2; immunoblotting
T1 construct: Pol2, catalytic subunit of DNA polymerase ε, S. cerevisiae; Dpb2, second largest subunit of DNA polymerase ε, S. cerevisiae; Dpb3, subunit of DNA polymerase ε, S. cerevisiae; Dpb4, subunit of DNA polymerase ε, S. cerevisiae (DPB4-TEV-CBP); also called Polε; Pol ε; source: S. cerevisiae strain yAJ2, purified as previously described (Yeeles et al, 2015); copies: + + +
T1 sequence (P21951 whole entry, chain 1 of 4): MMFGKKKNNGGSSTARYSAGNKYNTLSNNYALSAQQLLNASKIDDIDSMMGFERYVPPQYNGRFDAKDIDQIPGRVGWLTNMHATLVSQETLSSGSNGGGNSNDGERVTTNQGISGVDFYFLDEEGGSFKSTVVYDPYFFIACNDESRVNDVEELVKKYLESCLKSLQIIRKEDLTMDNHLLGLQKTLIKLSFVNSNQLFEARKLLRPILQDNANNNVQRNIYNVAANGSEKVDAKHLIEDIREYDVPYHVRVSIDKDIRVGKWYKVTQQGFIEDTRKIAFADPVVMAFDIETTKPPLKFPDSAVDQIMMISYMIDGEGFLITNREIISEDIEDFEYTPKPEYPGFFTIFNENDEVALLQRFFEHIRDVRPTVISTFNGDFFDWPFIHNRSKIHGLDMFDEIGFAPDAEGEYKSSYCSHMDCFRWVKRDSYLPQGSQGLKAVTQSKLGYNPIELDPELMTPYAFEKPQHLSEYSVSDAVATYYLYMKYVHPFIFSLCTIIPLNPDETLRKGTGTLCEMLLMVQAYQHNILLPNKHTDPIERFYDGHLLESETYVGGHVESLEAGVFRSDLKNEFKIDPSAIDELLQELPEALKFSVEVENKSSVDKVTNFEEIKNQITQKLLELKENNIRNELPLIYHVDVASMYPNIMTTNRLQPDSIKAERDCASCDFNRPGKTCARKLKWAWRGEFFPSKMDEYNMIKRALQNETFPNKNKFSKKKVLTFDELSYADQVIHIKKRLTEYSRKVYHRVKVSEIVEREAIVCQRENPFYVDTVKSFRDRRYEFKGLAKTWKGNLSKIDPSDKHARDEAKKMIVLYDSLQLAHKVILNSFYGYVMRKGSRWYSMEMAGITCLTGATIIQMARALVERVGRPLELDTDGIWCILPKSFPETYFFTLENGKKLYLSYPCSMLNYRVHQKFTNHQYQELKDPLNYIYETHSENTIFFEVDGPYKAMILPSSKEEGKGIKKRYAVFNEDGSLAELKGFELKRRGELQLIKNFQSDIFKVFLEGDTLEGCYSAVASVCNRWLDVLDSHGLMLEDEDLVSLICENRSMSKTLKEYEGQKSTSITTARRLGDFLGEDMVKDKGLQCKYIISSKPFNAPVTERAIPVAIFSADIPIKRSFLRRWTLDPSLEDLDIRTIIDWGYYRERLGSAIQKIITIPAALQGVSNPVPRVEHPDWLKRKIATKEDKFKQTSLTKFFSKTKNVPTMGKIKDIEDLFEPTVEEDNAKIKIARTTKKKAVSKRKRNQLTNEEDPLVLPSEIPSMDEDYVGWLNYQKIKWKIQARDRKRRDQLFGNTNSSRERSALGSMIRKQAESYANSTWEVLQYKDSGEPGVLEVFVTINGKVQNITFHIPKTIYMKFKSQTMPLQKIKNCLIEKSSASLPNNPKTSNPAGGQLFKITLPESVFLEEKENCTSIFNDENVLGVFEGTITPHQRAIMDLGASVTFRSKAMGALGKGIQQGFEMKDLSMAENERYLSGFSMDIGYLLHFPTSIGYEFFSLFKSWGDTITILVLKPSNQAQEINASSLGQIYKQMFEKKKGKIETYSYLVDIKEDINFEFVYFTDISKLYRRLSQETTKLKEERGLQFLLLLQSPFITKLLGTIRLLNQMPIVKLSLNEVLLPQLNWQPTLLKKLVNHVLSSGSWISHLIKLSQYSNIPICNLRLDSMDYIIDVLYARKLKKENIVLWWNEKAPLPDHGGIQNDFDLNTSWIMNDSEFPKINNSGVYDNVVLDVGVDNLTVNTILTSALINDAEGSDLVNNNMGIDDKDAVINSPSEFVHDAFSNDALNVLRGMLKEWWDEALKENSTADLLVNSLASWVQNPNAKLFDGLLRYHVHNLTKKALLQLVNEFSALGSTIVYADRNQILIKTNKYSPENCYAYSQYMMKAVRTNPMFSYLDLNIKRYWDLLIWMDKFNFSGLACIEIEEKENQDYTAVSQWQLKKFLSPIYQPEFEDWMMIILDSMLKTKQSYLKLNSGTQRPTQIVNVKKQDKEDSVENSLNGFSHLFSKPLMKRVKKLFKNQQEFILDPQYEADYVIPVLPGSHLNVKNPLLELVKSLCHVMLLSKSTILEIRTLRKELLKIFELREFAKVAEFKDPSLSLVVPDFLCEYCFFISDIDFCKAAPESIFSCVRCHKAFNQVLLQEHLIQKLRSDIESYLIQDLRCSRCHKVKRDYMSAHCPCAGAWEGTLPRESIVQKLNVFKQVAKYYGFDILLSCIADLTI
T1 sequence (P24482 whole entry, chain 2 of 4): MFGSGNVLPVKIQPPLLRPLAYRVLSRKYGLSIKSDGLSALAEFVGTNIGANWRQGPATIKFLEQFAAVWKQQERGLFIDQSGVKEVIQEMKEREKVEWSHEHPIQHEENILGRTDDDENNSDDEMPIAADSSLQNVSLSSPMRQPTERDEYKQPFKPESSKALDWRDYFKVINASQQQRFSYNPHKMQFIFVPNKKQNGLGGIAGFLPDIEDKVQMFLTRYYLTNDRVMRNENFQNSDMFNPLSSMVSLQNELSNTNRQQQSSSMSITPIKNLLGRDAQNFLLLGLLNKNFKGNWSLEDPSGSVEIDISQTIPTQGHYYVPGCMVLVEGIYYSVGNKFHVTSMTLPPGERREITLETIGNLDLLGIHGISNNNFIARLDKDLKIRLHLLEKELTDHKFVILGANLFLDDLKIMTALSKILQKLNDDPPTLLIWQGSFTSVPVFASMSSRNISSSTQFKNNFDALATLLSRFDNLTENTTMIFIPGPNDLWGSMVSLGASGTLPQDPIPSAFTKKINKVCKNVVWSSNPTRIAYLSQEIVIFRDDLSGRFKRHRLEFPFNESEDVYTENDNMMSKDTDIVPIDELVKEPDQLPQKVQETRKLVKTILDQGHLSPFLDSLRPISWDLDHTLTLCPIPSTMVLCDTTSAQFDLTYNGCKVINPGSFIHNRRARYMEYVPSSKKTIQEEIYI
T1 sequence (P27344 whole entry, chain 3 of 4): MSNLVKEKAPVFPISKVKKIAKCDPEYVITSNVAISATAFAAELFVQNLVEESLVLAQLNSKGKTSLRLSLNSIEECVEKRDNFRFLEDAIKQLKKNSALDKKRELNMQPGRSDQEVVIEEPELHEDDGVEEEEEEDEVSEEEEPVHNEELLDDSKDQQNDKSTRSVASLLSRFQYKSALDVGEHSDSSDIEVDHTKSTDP
T1 sequence (Q04603 whole entry, chain 4 of 4): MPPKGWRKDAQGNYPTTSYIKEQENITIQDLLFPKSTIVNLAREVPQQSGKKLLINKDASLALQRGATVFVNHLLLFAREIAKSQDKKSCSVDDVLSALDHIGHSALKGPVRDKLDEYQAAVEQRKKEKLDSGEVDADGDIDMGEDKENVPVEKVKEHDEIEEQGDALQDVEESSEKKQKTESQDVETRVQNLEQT

[2] = molecular target: T2, GINS tetramer (Sld5, Psf1, Psf2, Psf3), S. cerevisiae (S. cerevisiae, UniProt Q03406 1-294; Q12488 1-208; P40359 1-213; Q12146 1-194); experiment: co-IP; purified proteins mixed: 10 nM FLAG-Rrm3 with 15 nM GINS, 10 min on ice; anti-FLAG M2 magnetic beads; 25 mM Hepes-KOH pH 7.6, 200 mM KOAc, 0.02% NP-40-S, 0.1 mg/mL BSA, 1 mM DTT, 10 mM Mg(OAc)2; immunoblotting
T2 construct: Sld5, GINS subunit, S. cerevisiae; Psf1, GINS subunit, S. cerevisiae; Psf2, GINS subunit, S. cerevisiae; Psf3, GINS subunit, S. cerevisiae; pJL005 with TwinStrep-Psf3; also called tetrameric GINS complex; source: purified as previously described (Yeeles et al, 2015; Lewis et al, 2022); copies: + + +
T2 sequence (looked up) 1: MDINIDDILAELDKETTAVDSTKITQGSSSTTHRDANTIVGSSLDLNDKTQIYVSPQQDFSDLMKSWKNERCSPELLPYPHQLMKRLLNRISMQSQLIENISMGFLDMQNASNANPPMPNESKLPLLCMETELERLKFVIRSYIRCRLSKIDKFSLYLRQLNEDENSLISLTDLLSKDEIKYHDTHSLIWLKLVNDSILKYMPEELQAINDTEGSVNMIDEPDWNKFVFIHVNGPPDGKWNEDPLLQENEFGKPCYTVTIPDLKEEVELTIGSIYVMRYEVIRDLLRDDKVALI
T2 sequence (looked up) 2: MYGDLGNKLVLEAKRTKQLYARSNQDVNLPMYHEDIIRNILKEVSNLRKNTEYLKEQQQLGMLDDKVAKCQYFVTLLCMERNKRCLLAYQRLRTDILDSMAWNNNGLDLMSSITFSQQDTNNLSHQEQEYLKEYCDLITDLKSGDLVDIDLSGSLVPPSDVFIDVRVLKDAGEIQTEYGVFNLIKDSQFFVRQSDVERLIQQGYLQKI
T2 sequence (looked up) 3: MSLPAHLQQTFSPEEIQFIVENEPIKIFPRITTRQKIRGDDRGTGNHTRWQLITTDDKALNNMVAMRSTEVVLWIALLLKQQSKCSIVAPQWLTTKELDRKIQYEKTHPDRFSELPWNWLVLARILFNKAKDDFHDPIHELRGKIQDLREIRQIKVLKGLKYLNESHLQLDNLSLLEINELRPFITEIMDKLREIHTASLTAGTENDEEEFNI
T2 sequence (looked up) 4: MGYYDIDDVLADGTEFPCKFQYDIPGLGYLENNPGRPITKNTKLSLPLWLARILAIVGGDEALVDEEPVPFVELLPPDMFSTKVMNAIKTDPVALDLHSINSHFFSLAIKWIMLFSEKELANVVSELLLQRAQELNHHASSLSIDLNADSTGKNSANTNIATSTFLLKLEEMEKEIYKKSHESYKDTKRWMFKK

[3] = molecular target: T3, Homo sapiens CMG helicase (CDC45-MCM2-7-GINS) (human, UniProt P49736 1-904; P25205 1-808; P33991 1-863; P33992 1-734; Q14566 1-821; P33993 …); experiment: co-IP; purified proteins mixed: 10 nM RTEL1-FLAG with 15 nM hsCMG, 10 min on ice; anti-FLAG M2 magnetic beads; 25 mM Hepes-KOH pH 7.6, 100 mM KOAc, 0.02% NP-40-S, 0.1 mg/mL BSA, 1 mM DTT, 10 mM Mg(OAc)2; immunoblotting
T3 construct: MCM2, human, subunit of CMG; MCM3, human, subunit of CMG; MCM4, human, subunit of CMG; MCM5, human, subunit of CMG; MCM6, human, subunit of CMG; MCM7, human, subunit of CMG; CDC45, human, subunit of CMG; SLD5 (GINS4), human, GINS subunit of CMG (PrA-3TEV-HsSld5; eluted from IgG Sepharose with TEV protease); PSF1 (GINS1), human, GINS subunit of CMG; PSF2 (GINS2), human, GINS subunit of CMG; PSF3 …

B1: Rrm3Δ111-130 (enzyme, S. cerevisiae, UniProt P38766 1-723, looked up)
chain: MFRSHASGNKKQWSKRSSNGSTPAASASGSHAYRQQTLSSFFMGCGKKSAAASKNSTTIIDLESGDEGNRNITAPPRPRLIRNNSSSLFSQSQGSFGDDDPDAEFKKLVDHKTASASTTQKTYHFDEDETLREVTSVKSNSRQLSFTSTINIEDSSMKLSTDSERPAKRSKPSMEFQGLKLTVPKKIKPLLRKTVSNMDSMNHRSASSPVVLTMEQERVVNLIVKKRTNVFYTGSAGTGKSVILQTIIRQLSSLYGKESIAITASTGLAAVTIGGSTLHKWSGIGIGNKTIDQLVKKIQSQKDLLAAWRYTKVLIIDEISMVDGNLLDKLEQIARRIRKNDDPFGGIQLVLTGDFFQLPPVAKKDEHNVVKFCFESEMWKRCIQKTILLTKVFRQQDNKLIDILNAIRYGELTVDIAKTIRNLNRDIDYADGIAPTELYATRREVELSNVKKLQSLPGDLYEFKAVDNAPERYQAILDSSLMVEKVVALKEDAQVMMLKNKPDVELVNGSLGKVLFFVTESLVVKMKEIYKIVDDEVVMDMRLVSRVIGNPLLKESKEFRQDLNARPLARLERLKILINYAVKISPHKEKFPYVRWTVGKNKYIHELMVPERFPIDIPRENVGLERTQIPLMLCWALSIHKAQGQTIQRLKVDLRRIFEAGQVYVALSRAVTMDTLQVLNFDPGKIRTNERVKDFYKRLETLK
notes: Plasmid pOO10; source: S. cerevisiae strain yOO5, purified (anti-FLAG M2 resin, HiTrap heparin); not shown: 3FLAG, N-terminal, kept
[1]
  binding result: binds

B2: Rrm3Δ86-110 (enzyme, S. cerevisiae, UniProt P38766 1-723, looked up)
chain: MFRSHASGNKKQWSKRSSNGSTPAASASGSHAYRQQTLSSFFMGCGKKSAAASKNSTTIIDLESGDEGNRNITAPPRPRLIRNNSVPRLNSYKKSSRSLSMTSSLHKTASASTTQKTYHFDEDETLREVTSVKSNSRQLSFTSTINIEDSSMKLSTDSERPAKRSKPSMEFQGLKLTVPKKIKPLLRKTVSNMDSMNHRSASSPVVLTMEQERVVNLIVKKRTNVFYTGSAGTGKSVILQTIIRQLSSLYGKESIAITASTGLAAVTIGGSTLHKWSGIGIGNKTIDQLVKKIQSQKDLLAAWRYTKVLIIDEISMVDGNLLDKLEQIARRIRKNDDPFGGIQLVLTGDFFQLPPVAKKDEHNVVKFCFESEMWKRCIQKTILLTKVFRQQDNKLIDILNAIRYGELTVDIAKTIRNLNRDIDYADGIAPTELYATRREVELSNVKKLQSLPGDLYEFKAVDNAPERYQAILDSSLMVEKVVALKEDAQVMMLKNKPDVELVNGSLGKVLFFVTESLVVKMKEIYKIVDDEVVMDMRLVSRVIGNPLLKESKEFRQDLNARPLARLERLKILINYAVKISPHKEKFPYVRWTVGKNKYIHELMVPERFPIDIPRENVGLERTQIPLMLCWALSIHKAQGQTIQRLKVDLRRIFEAGQVYVALSRAVTMDTLQVLNFDPGKIRTNERVKDFYKRLETLK
notes: Plasmid pOO14; also called 3FLAG-TEV RRM3-∆86-110; source: S. cerevisiae strain yOO7, purified (anti-FLAG M2 resin, HiTrap heparin); not shown: 3FLAG, N-terminal, kept
[2]
  binding result: binds

B3: Rrm3-6A (Rrm3 F89A, Q93A, F96A, D99A, E104A, L108A) (enzyme, S. cerevisiae, UniProt P38766 1-723, looked up)
chain: MFRSHASGNKKQWSKRSSNGSTPAASASGSHAYRQQTLSSFFMGCGKKSAAASKNSTTIIDLESGDEGNRNITAPPRPRLIRNNSSSLASQSAGSAGDADPDAAFKKAVDVPRLNSYKKSSRSLSMTSSLHKTASASTTQKTYHFDEDETLREVTSVKSNSRQLSFTSTINIEDSSMKLSTDSERPAKRSKPSMEFQGLKLTVPKKIKPLLRKTVSNMDSMNHRSASSPVVLTMEQERVVNLIVKKRTNVFYTGSAGTGKSVILQTIIRQLSSLYGKESIAITASTGLAAVTIGGSTLHKWSGIGIGNKTIDQLVKKIQSQKDLLAAWRYTKVLIIDEISMVDGNLLDKLEQIARRIRKNDDPFGGIQLVLTGDFFQLPPVAKKDEHNVVKFCFESEMWKRCIQKTILLTKVFRQQDNKLIDILNAIRYGELTVDIAKTIRNLNRDIDYADGIAPTELYATRREVELSNVKKLQSLPGDLYEFKAVDNAPERYQAILDSSLMVEKVVALKEDAQVMMLKNKPDVELVNGSLGKVLFFVTESLVVKMKEIYKIVDDEVVMDMRLVSRVIGNPLLKESKEFRQDLNARPLARLERLKILINYAVKISPHKEKFPYVRWTVGKNKYIHELMVPERFPIDIPRENVGLERTQIPLMLCWALSIHKAQGQTIQRLKVDLRRIFEAGQVYVALSRAVTMDTLQVLNFDPGKIRTNERVKDFYKRLETLK
notes: Plasmid pOO16; also called 3FLAG-TEV-RRM3-6A; source: S. cerevisiae strain yOO8, purified (anti-FLAG M2 resin, HiTrap heparin); not shown: 3FLAG, N-terminal, kept
[2]
  binding result: binds

B4: Rrm3-CR (Rrm3 F89D, Q93A, F96K, D99K, E104K) (enzyme, S. cerevisiae, UniProt P38766 1-723, looked up)
chain: MFRSHASGNKKQWSKRSSNGSTPAASASGSHAYRQQTLSSFFMGCGKKSAAASKNSTTIIDLESGDEGNRNITAPPRPRLIRNNSSSLDSQSAGSKGDKDPDAKFKKLVDVPRLNSYKKSSRSLSMTSSLHKTASASTTQKTYHFDEDETLREVTSVKSNSRQLSFTSTINIEDSSMKLSTDSERPAKRSKPSMEFQGLKLTVPKKIKPLLRKTVSNMDSMNHRSASSPVVLTMEQERVVNLIVKKRTNVFYTGSAGTGKSVILQTIIRQLSSLYGKESIAITASTGLAAVTIGGSTLHKWSGIGIGNKTIDQLVKKIQSQKDLLAAWRYTKVLIIDEISMVDGNLLDKLEQIARRIRKNDDPFGGIQLVLTGDFFQLPPVAKKDEHNVVKFCFESEMWKRCIQKTILLTKVFRQQDNKLIDILNAIRYGELTVDIAKTIRNLNRDIDYADGIAPTELYATRREVELSNVKKLQSLPGDLYEFKAVDNAPERYQAILDSSLMVEKVVALKEDAQVMMLKNKPDVELVNGSLGKVLFFVTESLVVKMKEIYKIVDDEVVMDMRLVSRVIGNPLLKESKEFRQDLNARPLARLERLKILINYAVKISPHKEKFPYVRWTVGKNKYIHELMVPERFPIDIPRENVGLERTQIPLMLCWALSIHKAQGQTIQRLKVDLRRIFEAGQVYVALSRAVTMDTLQVLNFDPGKIRTNERVKDFYKRLETLK
notes: Plasmid pOO15; also called 3FLAG-TEV-RRM3-CR; source: S. cerevisiae strain yOO9, purified (anti-FLAG M2 resin, HiTrap heparin); not shown: 3FLAG, N-terminal, kept
[2]
  binding result: binds

B5: Homo sapiens RTEL1 (wild-type, FLAG-tagged) (enzyme, human, UniProt Q9NZ71-1 1-1219, looked up)
chain: MPKIVLNGVTVDFPFQPYKCQQEYMTKVLECLQQKVNGILESPTGTGKTLCLLCTTLAWREHLRDGISARKIAERAQGELFPDRALSSWGNAAAAAGDPIACYTDIPKIIYASRTHSQLTQVINELRNTSYRPKVCVLGSREQLCIHPEVKKQESNHLQIHLCRKKVASRSCHFYNNVEEKSLEQELASPILDIEDLVKSGSKHRVCPYYLSRNLKQQADIIFMPYNYLLDAKSRRAHNIDLKGTVVIFDEAHNVEKMCEESASFDLTPHDLASGLDVIDQVLEEQTKAAQQGEPHPEFSADSPSPGLNMELEDIAKLKMILLRLEGAIDAVELPGDDSGVTKPGSYIFELFAEAQITFQTKGCILDSLDQIIQHLAGRAGVFTNTAGLQKLADIIQIVFSVDPSEGSPGSPAGLGALQSYKVHIHPDAGHRRTAQRSDAWSTTAARKRGKVLSYWCFSPGHSMHELVRQGVRSLILTSGTLAPVSSFALEMQIPFPVCLENPHIIDKHQIWVGVVPRGPDGAQLSSAFDRRFSEECLSSLGKALGNIARVVPYGLLIFFPSYPVMEKSLEFWRARDLARKMEALKPLFVEPRSKGSFSETISAYYARVAAPGSTGATFLAVCRGKASEGLDFSDTNGRGVIVTGLPYPPRMDPRVVLKMQFLDEMKGQGGAGGQFLSGQEWYRQQASRAVNQAIGRVIRHRQDYGAVFLCDHRFAFADARAQLPSWVRPHVRVYDNFGHVIRDVAQFFRVAERTMPAPAPRATAPSVRGEDAVSEAKSPGPFFSTRKAKSLDLHVPSLKQRSSGSPAAGDPESSLCVEYEQEPVPARQRPRGLLAALEHSEQRAGSPGEEQAHSCSTLSLLSEKRPAEEPRGGRKKIRLVSHPEEPVAGAQTDRAKLFMVAVKQELSQANFATFTQALQDYKGSDDFAALAACLGPLFAEDPKKHNLLQGFYQFVRPHHKQQFEEVCIQLTGRGCGYRPEHSIPRRQRAQPVLDPTGRTAPDPKLTVSTAAAQQLDPQEHLNQGRPHLSPRPPPTGDPGSQPQWGSGVPRAGKQGQHAVSAYLADARRALGSAGCSQLLAALTAYKQDDDLDKVLAVLAALTTAKPEDFPLLHRFSMFVRPHHKQRFSQTCTDLTGRPYPGMEPPGPQEERLAVPPVLTHRAPQPGPSRSEKTGKTQSKISSFLRQRPAGTVGAGGEDAGPSQSSGPPHGPAASEWGL
notes: RTEL1, human; the models and residue numbers are of isoform 1 (NP_057518.1), printed to residue 1219; Plasmid pTD195; The isoform is printed for the AlphaFold models; the deletion mutants use the same numbering; also called hsRTEL1; RTEL1-2FLAG; source: S. cerevisiae strain yOO1, purified (anti-FLAG M2 resin, HiLoad Superdex 200); not shown: 2XFLAG, C-terminal, kept
[3]
  binding result: binds
